# B1: Eterna 1142 (Exclusion - Theophylline A) (ssRNA)
# RNA: UGCAUCAGUGCCUUUGAUCUAUUCCUGGAUACCAGAUCCUACUUGAUCCCUUGGCAGCCAUACGGGAGUGAUGUUCCAUGUAUCC
# B2: Eterna 5811984 (Exclusion 6) (ssRNA)
# RNA: CUUAGUAUCUAGGAUAUCUAGUACAUAGUAUCUAGAGAAGGAGAUACAUGAGGAUCACCCAUGUUCUGUGUUCU
# B3: Eterna 13246 (Sensor for hsa-mir-208a) (ssRNA)
# RNA: UGGAUCUAGGCUUGCCUGGGUCCAUGUUGACAUGAGGAUCACCCAUGUGUAUUUUAUAAGCUUUUUGUUUGUCAACA
# B4: Eterna 10216 (Sensor for hsa-mir-208a) (ssRNA)
# RNA: CUCAAAACAAGUUGCAGUGUUCGUCUUUAACAUGAGGAUCACCCAUGUAAUAACCCAGUGGAAGCGCUCGGGCCACC
# B5: Eterna 7639274 (Exclusion - Theophylline B) (ssRNA)
# RNA: UUAUUUAUAAUGGAUACCAGUGCUGUGGCCCGGCAUCCUGACAUGAGGAUCACCCAUGUGUACCCUUGGCAGCUGUUAUGGGUUU
# B6: Eterna 7627711 (Same State - Tryptophan B) (ssRNA)
# RNA: GGUUACUCUACGGCCGCCACUGAUUAAUUAUAAUCCUGUACAUAAACAUGAGGAUCACCCAUGUACAGGACCGGGUAGUGUAACC
# B7: Eterna 7730854 (Same State - Tryptophan A) (ssRNA)
# RNA: UACAUGAGGAUCACCCAUGUCCCAUGUGAACGAGGACCGGUACGGCCGCCACUCGACCGAGGCGGCACAUGAGGAUCACCCGCAU
# B8: Eterna 6082084 (Exclusion 3) (ssRNA)
# RNA: AACACGUGAGGAUAUACAUGAGGAUCACCCAUGUUGGUACAAUCCUGUCCGACUAUCCGUAGAAGGCAUUGACU
# B9: Eterna 7699730 (Exclusion - Theophylline A) (ssRNA)
# RNA: AGAAACUUGUAUGUCGGCCCUGCGCGCGAUACCAGCCAAAUGGAUGGCCCUUGGCAGCGCAGCGAGUGAUGUUCGCCCGGCUGAC
# B10: Eterna 11880 (Sensor v3, turn-off variant 2) (ssRNA)
# RNA: AGAAAUGCCCAUGGCCGCAAGCUUUUCGCUUGUCUUACCACAUGAGGAUCACCCAUGUGACAUGGGCUCCUUAUAAU
# What was measured:
# Details in all cases: chain copies: 2; label: tethered by stalled RNA polymerase
# [1] = biological target: T1, MS2 coat protein, dlFG mutant (Escherichia phage MS2, UniProt P03612, del68-81insG); assay: 4 mM Mg2+; no ligand; RNA-MaP array; 100 mM Tris-HCl pH 7.5, 80 mM KCl, 4 mM MgCl2, 0.1 mg/mL BSA, 1 mM DTT, 0.01 mg/mL yeast tRNA, 0.01% Tween-20; protein 1.5 nM to 3 uM; 37 C (Table S3)
# [2] = biological target: T1, MS2 coat protein, dlFG mutant; assay: 4 mM Mg2+; FMN 200 uM; RNA-MaP array; 100 mM Tris-HCl pH 7.5, 80 mM KCl, 4 mM MgCl2, 0.1 mg/mL BSA, 1 mM DTT, 0.01 mg/mL yeast tRNA, 0.01% Tween-20; protein 1.5 nM to 3 uM; 37 C (Table S3)
# [3] = biological target: T1, MS2 coat protein, dlFG mutant; assay: 4 mM Mg2+; miR-208a RNA 100 nM (AU…UUGU); RNA-MaP array; 100 mM Tris-HCl pH 7.5, 80 mM KCl, 4 mM MgCl2, 0.1 mg/mL BSA, 1 mM DTT, 0.01 mg/mL yeast tRNA, 0.01% Tween-20; protein 1.5 nM to 3 uM; 37 C (Table S3)
# [4] = biological target: T1, MS2 coat protein, dlFG mutant; assay: 4 mM Mg2+; theophylline 2 mM; RNA-MaP array; 100 mM Tris-HCl pH 7.5, 80 mM KCl, 4 mM MgCl2, 0.1 mg/mL BSA, 1 mM DTT, 0.01 mg/mL yeast tRNA, 0.01% Tween-20; protein 1.5 nM to 3 uM; 37 C (Table S3)
# [5] = biological target: T1, MS2 coat protein, dlFG mutant; assay: 4 mM Mg2+; L-tryptophan 2.4 mM; RNA-MaP array; 100 mM Tris-HCl pH 7.5, 80 mM KCl, 4 mM MgCl2, 0.1 mg/mL BSA, 1 mM DTT, 0.01 mg/mL yeast tRNA, 0.01% Tween-20; protein 1.5 nM to 3 uM; 37 C (Table S3)
binder,measurement,setting,value
B1,Kd,[1],> 3000 nM
B2,Kd,[2],65.6 nM
B3,Kd,[3],13.4 nM
B4,Kd,[3],21.1 nM
B5,Kd,[4],24.2 nM
B6,Kd,[5],29.1 nM
B7,Kd,[5],1580 nM
B8,Kd,[2],34.1 nM
B9,Kd,[1],> 3000 nM
B10,Kd,[3],10.7 nM
